B1: Importin subunit beta-5 (Saccharomyces cerevisiae), P53067 (parent)
chain: MDINELIIGAQSADKHTREVAETQLLQWCDSDASQVFKALANVALQHEASLESRQFALLSLRKLITMYWSPGFESYRSTSNVEIDVKDFIREVLLKLCLNDNENTKIKNGASYCIVQISAVDFPDQWPQLLTVIYDAISHQHSLNAMSLLNEIYDDVVSEEMFFEGGIGLATMEIVFKVLNTETSTLIAKIAALKLLKACLLQMSSHNEYDEASRKSFVSQCLATSLQILGQLLTLNFGNVDVISQLKFKSIIYENLVFIKNDFSRKHFSSELQKQFKIMAIQDLENVTHINANVETTESEPLLETVHDCSIYIVEFLTSVCTLQFSVEEMNKIITSLTILCQLSSETREIWTSDFNTFVSKETGLAASYNVRDQANEFFTSLPNPQLSLIFKVVSNDIEHSTCNYSTLESLLYLLQCILLNDDEITGENIDQSLQILIKTLENILVSQEIPELILARAILTIPRVLDKFIDALPDIKPLTSAFLAKSLNLALKSDKELIKSATLIAFTYYCYFAELDSVLGPEVCSETQEKVIRIINQVSSDAEEDTNGALMEVLSQVISYNPKEPHSRKEILQAEFHLVFTISSEDPANVQVVVQSQECLEKLLDNINMDNYKNYIELCLPSFINVLDSNNANNYRYSPLLSLVLEFITVFLKKKPNDGFLPDEINQYLFEPLAKVLAFSTEDETLQLATEAFSYLIFNTDTRAMEPRLMDIMKVLERLLSLEVSDSAAMNVGPLVVAIFTRFSKEIQPLIGRILEAVVVRLIKTQNISTEQNLLSVLCFLTCNDPKQTVDFLSSFQIDNTDALTLVMRKWIEAFEVIRGEKRIKENIVALSNLFFLNDKRLQKVVVNGNLIPYEGDLIITRSMAKKMPDRYVQVPLYTKIIKLFVSELSFQSKQPNPEQLITSDIKQEVVNANKDDDNDDWEDVDDVLDYDKLKEYIDDDVDEEADDDSDDITGLMDVKESVVQLLVRFFKEVASKDVSGFHCIYETLSDSERKVLSEALL

Variants of: B1
Conditions: with gsp1_yeast GSP1, P32835

**Q.** Which “effect of a mutation on the interaction” value does the source give for K909R here?
**A.** decreasing interaction

Source: IntAct's records for PubMed 22562154
